Data: patent US20240002531A1 (ONO PHARMACEUTICAL, published 2024)
Like-named read-outs stand apart in the source and are kept apart here.

How the values were obtained:
Assay in all cases: peptide ELISA, OD 655 nm
[1] = molecular target: T1, HER2 peptide p603-622 (amino acids 603 to 622 of human HER2) (human)
T1 construct: Synthetic peptide; also called wild-type HER2 peptide
T1 peptide: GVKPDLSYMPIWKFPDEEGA

[2] = molecular target: T2, G603A peptide (HER2 603-622 with G603A) (human)
T2 peptide: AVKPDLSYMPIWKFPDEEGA

[3] = molecular target: T3, V604A peptide (HER2 603-622 with V604A) (human)
T3 peptide: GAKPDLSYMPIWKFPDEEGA

[4] = molecular target: T4, K605A peptide (HER2 603-622 with K605A) (human)
T4 peptide: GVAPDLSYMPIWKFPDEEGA

[5] = molecular target: T5, P606A peptide (HER2 603-622 with P606A) (human)
T5 peptide: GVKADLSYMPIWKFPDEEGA

[6] = molecular target: T6, D607A peptide (HER2 603-622 with D607A) (human)
T6 peptide: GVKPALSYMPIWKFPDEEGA

[7] = molecular target: T7, L608A peptide (HER2 603-622 with L608A) (human)
T7 peptide: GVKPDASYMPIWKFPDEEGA

[8] = molecular target: T8, S609A peptide (HER2 603-622 with S609A) (human)
T8 peptide: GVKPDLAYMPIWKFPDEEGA

[9] = molecular target: T9, Y610A peptide (HER2 603-622 with Y610A) (human)
T9 peptide: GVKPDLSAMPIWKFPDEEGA

[10] = molecular target: T10, M611A peptide (HER2 603-622 with M611A) (human)
T10 peptide: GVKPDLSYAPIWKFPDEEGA

[11] = molecular target: T11, P612A peptide (HER2 603-622 with P612A) (human)
T11 peptide: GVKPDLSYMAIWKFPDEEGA

[12] = molecular target: T12, I613A peptide (HER2 603-622 with I613A) (human)
T12 construct: also called 1613A
T12 peptide: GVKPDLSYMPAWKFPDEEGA

[13] = molecular target: T13, W614A peptide (HER2 603-622 with W614A) (human)
T13 peptide: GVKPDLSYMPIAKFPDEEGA

[14] = molecular target: T14, K615A peptide (HER2 603-622 with K615A) (human)
T14 peptide: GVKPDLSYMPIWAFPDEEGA

[15] = molecular target: T15, F616A peptide (HER2 603-622 with F616A) (human)
T15 peptide: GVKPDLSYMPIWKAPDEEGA

[16] = molecular target: T16, P617A peptide (HER2 603-622 with P617A) (human)
T16 peptide: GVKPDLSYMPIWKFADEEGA

[17] = molecular target: T17, D618A peptide (HER2 603-622 with D618A) (human)
T17 peptide: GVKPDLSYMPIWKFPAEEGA

[18] = molecular target: T18, E619A peptide (HER2 603-622 with E619A) (human)
T18 peptide: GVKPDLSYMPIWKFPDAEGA

[19] = molecular target: T19, E620A peptide (HER2 603-622 with E620A) (human)
T19 peptide: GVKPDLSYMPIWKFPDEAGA

[20] = molecular target: T20, G621A peptide (HER2 603-622 with G621A) (human)
T20 peptide: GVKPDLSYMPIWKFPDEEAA

[21] = molecular target: T21, HER2_604-622C peptide (NH2-VKPDLSYMPIWKFPDEEGAC-COOH) (human)
T21 construct: KLH was added for immunisation, the peptide itself was coated in the screening ELISA
T21 peptide: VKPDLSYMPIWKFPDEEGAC

[22] = molecular target: T1, HER2 peptide p603-622 (amino acids 603 …)
[23] = molecular target: T2, G603A peptide (HER2 603-622 with G603A)
[24] = molecular target: T3, V604A peptide (HER2 603-622 with V604A)
[25] = molecular target: T4, K605A peptide (HER2 603-622 with K605A)
[26] = molecular target: T5, P606A peptide (HER2 603-622 with P606A)
[27] = molecular target: T6, D607A peptide (HER2 603-622 with D607A)
[28] = molecular target: T7, L608A peptide (HER2 603-622 with L608A)
[29] = molecular target: T8, S609A peptide (HER2 603-622 with S609A)
[30] = molecular target: T9, Y610A peptide (HER2 603-622 with Y610A)
[31] = molecular target: T10, M611A peptide (HER2 603-622 with M611A)
[32] = molecular target: T11, P612A peptide (HER2 603-622 with P612A)
[33] = molecular target: T12, I613A peptide (HER2 603-622 with I613A)
[34] = molecular target: T13, W614A peptide (HER2 603-622 with W614A)
[35] = molecular target: T14, K615A peptide (HER2 603-622 with K615A)
[36] = molecular target: T15, F616A peptide (HER2 603-622 with F616A)
[37] = molecular target: T16, P617A peptide (HER2 603-622 with P617A)
[38] = molecular target: T17, D618A peptide (HER2 603-622 with D618A)
[39] = molecular target: T18, E619A peptide (HER2 603-622 with E619A)
[40] = molecular target: T19, E620A peptide (HER2 603-622 with E620A)
[41] = molecular target: T20, G621A peptide (HER2 603-622 with G621A)
[42] = molecular target: T21, HER2_604-622C peptide …

B1: H2Mab-289 antibody (antibody, mouse IgG1, kappa, V domains shown)
VH: EVQLQQSGPELVKPGASVKISCKASGYSFTGFFMNWVMQSHGKSLEWIGRINPYNGDTFYNQKFNDKATLTVDKSSRTAHMDLRNLASEDSAVYYCATISGNYRGYAMDNWGQGTSVTVSS
VL: DVLMTQTPLSLPVSLGDQASISCRSSQTILHTNGNTYLEWYLQKPGQSPKLLIYKVSNRFSGVPDRFSGSGSGTDFTLKISRVEAEDLGVYYCFQGSRVPPTFGGGTKLEIKR
[1]
  binding result: binds
[2]
  binding result: binds
[3]
  binding result: binds
[4]
  binding result: binds
[5]
  binding result: binds
[6]
  binding result: binds
[7]
  binding result: binds
[8]
  binding result: binds
[9]
  binding result: binds
[10]
  binding result: binds
[11]
  binding result: binds
[12]
  binding result: binds
[13]
  binding result: binds
[14]
  binding result: binds
[15]
  binding result: binds
[16]
  binding result: binds
[17]
  binding result: binds
[18]
  binding result: binds
[19]
  binding result: binds
[20]
  binding result: binds
[21]
  binding result: binds

B2: H2Mab-285 antibody (antibody, mouse IgG3, V domains shown)
VH: EVQLVESGGGLVQPGGSLKLSCAASGFTFSNYGIFWVRQTPDKRLELVATVKSNGGSTYYPDSVKGRFTISRDNAKKTLYLQMSSLKSEDTAMYYCAREGGDYWGQGTSVTVSS
VL: DIVMTQSHKFMSTSVGDRVSITCKASQDVGTAVAWYQQKPGQSPKLLIYWTSTRHTGVPDRFTGSGSGTDFTLTIRNVQSEDLADYFCQQYNRNPLTFGAGTRLELKR
[22]
  binding result: binds
[23]
  binding result: binds
[24]
  binding result: binds
[25]
  binding result: binds
[26]
  binding result: binds
[27]
  binding result: binds
[28]
  binding result: binds
[29]
  binding result: binds
[30]
  binding result: binds
[31]
  binding result: binds
[32]
  binding result: binds
[33]
  binding result: binds
[34]
  binding result: binds
[35]
  binding result: binds
[36]
  binding result: binds
[37]
  binding result: binds
[38]
  binding result: binds
[39]
  binding result: binds
[40]
  binding result: binds
[41]
  binding result: binds
[42]
  binding result: binds

B3: H2Mab-284 antibody (antibody, mouse IgG1, kappa, V domains shown)
VH: QVTLKESGPGILQPSQTLSLTCSFSGFSLSTSGVGVGWIRQPSGKGLEWLAHIWWDDDKNYNPALKSRLTISKDTSTNQGFLKIASVDTADTATYFCARIEGQKGFAYWGQGTLVTVSA
VL: DIVMSQSPSSLAVSVGEKVTMSCKSSQSLLYSRNQKNYLAWYQQKPGQSPKLLIYWASTRESGVPDRFTGSGSGTDFTLTISSVKAEDLAVYYCQQYYSSPYTFGGGTKLEIKR
[22]
  binding result: binds
[23]
  binding result: binds
[24]
  binding result: binds
[25]
  binding result: binds
[26]
  binding result: binds
[27]
  binding result: binds
[28]
  binding result: binds
[29]
  binding result: binds
[30]
  binding result: binds
[31]
  binding result: binds
[32]
  binding result: binds
[33]
  binding result: binds
[34]
  binding result: binds
[35]
  binding result: no binding (tested: 10 ug/ml)
[36]
  binding result: no binding (tested: 10 ug/ml)
[37]
  binding result: binds
[38]
  binding result: binds
[39]
  binding result: binds
[40]
  binding result: binds
[41]
  binding result: binds
[42]
  binding result: binds
